# Where two headings read alike, the source gives them in different places.
# T1: recombinant canine β NGF (canine, UniProt Q29074 110-229 (pig entry))
# T1 construct: also called canine NGF
# T1 chain: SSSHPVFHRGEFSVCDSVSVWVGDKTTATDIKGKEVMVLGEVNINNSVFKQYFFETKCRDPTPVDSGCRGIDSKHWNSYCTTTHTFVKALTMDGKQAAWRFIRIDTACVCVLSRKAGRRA
# T2: recombinant canine β NGF (canine, UniProt Q29074 110-229 (pig entry))
# T2 chain: T1 chain
# B1: 2B12 hybridoma supernatant (antibody, mouse IgG2b, V domains shown)
# VH: QVQLQQPGAELVKPGASVKLSCKASGYTFTNYWMHWVKQRPGQGLEWIGRIDPYGGGTKHNEKFKRKATVTADKSSSTAYILLSSLTSEDSAVYYCTRSGYDYYFDVWGTGTTVTVSS
# VL: DIQMTQSPASLSASVGETVTVTCRASENIYSFLAWHQQKQGKSPQLLVYNANTLAEGVPSRFSGSGSGTQFSLKINSLQPEDFGSYYCQHHFGTPFTFGSGTKLEIKR
# notes: Tested as supernatant of the hybridoma before subcloning; mouse IgG2b kappa; also called ML129-2B12.5G9
# B2: Mu72 Canine IgG1/k Chimera (antibody, V domains shown)
# VH: EVHLVESGGGLVKPGGFLILSCAASGFTFSDYYMFWIRQTPGKRLEWVATISDGGSYTYYTDNVKGRFTISRDNVKNNLYLQMSHLKSADTAMYYCARDWSDSEGFAYWGQGTLVTVSA
# VL: DVLMTQTPLSLPVSLGDQASISCRSSQSIVQSNGNTYLEWYLQKPGQSPKLLIYKVSNRFSGVPDRFSGSGSGTDFTLKISRVEAEDLGVYYCFQGSHVPFTFGSGTKLEIKR
# notes: also called PR-1290646; lot 1785614
# B3: PR-1254972 (antibody, mouse IgG2b, V domains shown)
# VH: B2 VH
# VL: B2 VL
# notes: also called 20B10; ML129-20B10.3F4
# B4: PR-1254980 (antibody, mouse IgG1, V domains shown)
# VH: EVQLQQSGAELVKPGASVKLSCTASGFNIKDTYIYWVKQRPEQGLEWIGRIDPANGNTIYASKFQGKATITADTSSNTAYMQLSSLTSGDTAVYYCAGYGYYAYWGQGTTLTVSS
# VL: DVVLTQTPLSLPVNIGDQASISCKSTKSLLNGDGFTYLDWYLQKPGQSPQLLIYLVSNRFSGVPDRFSGSGSGTDFTLKISRVEAEDLGVYYCFESNYLFTFGSGTKLEMKR
# notes: also called 23F1; ML129-23F1.4G3
# What was measured:
# human β NGF [1] = target: T3, human β NGF (human, UniProt P01138 122-241, biotinylated in the TrkA inhibition ELISA (sites not given)); experiment: TrkA inhibition ELISA; biotin-hNGF bound to rat TrkA/Fc; supernatant 5-fold
# T3 construct: Bought (R&D Systems 256-GF/CF); also called Human NGF; biotinylated human NGF
# Description: (§1) The plates were washed three times with PBS/Tween. The plates were blocked with 200 μl/well of 2% milk in PBS for 1 hour at room temperature. The plates were washed three times as above. Rat TrkA/Fc chimera (R&D Systems, catalog #1056-TK) was added at 1 μg/ml (50 μl/well) in PBS/0.1% BSA and then incubated for 1 hour at room temperature. Biotinylated human NGF was titered and pre-incubated with anti-NGF antibody supernatants diluted 1-fold, 5-fold, and 25-fold, or purified anti-NGF mAbs diluted to 0.08, 0.4, 2, or 10 μg/ml for 1 hour at room temperature on a plate shaker. The negative control was unrelated conditioned supernatant. The positive control was sera from a mouse immunized with NGF. The plates were washed and then 50 μl of each biotinylated NGF/Ab mix was added to the appropriate wells. The plates were incubated for 1 hour at room temperature. The plates were washed. […] The plates were incubated for 30 min at room temperature. The plates were washed. 50 μl of TMB (Invitrogen, cat #00-2023) was added and the reaction was stopped using 2N H₂SO₄ (VWR, cat # BDH3500-1). The absorbance at 450 nm was read on a Spectromax 2E plate reader (Molecular Devices), and the absorbance readings are shown in Table 5 The numerical value indicates binding of biotinylated human β NGF to rat TrkA/Fc chimera.
# human β NGF [2] = target: T3, human β NGF; experiment: TrkA inhibition ELISA; biotin-hNGF bound to rat TrkA/Fc; supernatant 25-fold
# Description: as §1
# human β NGF [3] = target: T3, human β NGF; experiment: TrkA inhibition ELISA; biotin-hNGF bound to rat TrkA/Fc; supernatant 1-fold
# Description: as §1
# human β NGF [4] = target: T3, human β NGF; experiment: cell-based or functional assay
# recombinant canine β NGF [5] = target: T1, recombinant canine β NGF; experiment: SPR (Biacore T100), antibody captured on goat anti-canine IgG, canine NGF injected
# Description: Purified mouse/canine chimeric antibodies and caninized antibodies were analyzed for affinity to canine NGF using a Biacore T100 instrument. Goat anti Canine IgG (Southern Biotech) was immobilized at 5000-10000 RU on a CM5 chip using an amine coupling procedure according to the manufacturer's instructions (Biacore). […] The association rate was monitored for 5 min and the dissociation rate was monitored for 10-20 min. The chip surface was regenerated using 50-75 ul 10 mM glycine pH 1.5 at a flow rate of 50-100 ul/min. Data was analyzed using Biaevaluation T100 software version 2.0.2, software, GE Healthcare Life Sciences (Piscataway, N.J.). Overall affinity parameters established for mouse/canine chimeric antibodies is summarized in Table 22 and for caninized antibodies in Table 23. […] The overall KDs of the mouse/canine anti-NGF mAbs range from about 1300 pM to 1.6 pM. […] The overall KDs of the caninized anti-NGF mAbs range from about 42 pM to 1.2 pM.
# recombinant canine β NGF [6] = target: T1, recombinant canine β NGF; experiment: cell-based or functional assay
# [7] = target: recombinant canine β NGF (canine); experiment: cell-based or functional assay
# biotinylated human β NGF [8] = target: T4, biotinylated human β NGF (human, UniProt P01138 122-241, biotinylated); experiment: capture ELISA; supernatant 25-fold
# T4 construct: also called Biotinylated Human NGF; human NGF
# Description: (§2) The plates were washed three times with wash buffer. The plates were blocked with 200 μl of 2% milk and incubated for 1 hour at room temperature. The plates were washed as above. […] The positive control was crude sera (diluted 1:500 with PBS) isolated from a β NGF immunized mouse and the negative control was hybridoma supernatant derived from a mouse immunized with an antigen other than NGF. The plates were washed and then 50 μl of biotinylated human or rat β NGF at 50 ng/ml was added and incubated for 1 hour at room temperature. The plates were washed. […] The plates were incubated for 30 minutes at room temperature. The plates were washed and then TMB substrate (Invitrogen, catalog #00-2023) was added. The reaction was stopped using 2N H₂SO₄ (VWR, catalog # BDH3500-1). The absorbance at 450 nm was read on a Spectromax 2E plate reader (Molecular Devices); these absorbance readings are shown in Tables 1 and 2. The numerical value indicates binding of mouse anti-NGF antibodies to biotinylated human or rat β NGF.
# biotinylated rat β NGF [9] = target: T5, biotinylated rat β NGF (rat, UniProt P25427 122-241, limits assumed, biotinylated); experiment: capture ELISA; supernatant 25-fold
# T5 construct: also called Biotinylated Rat NGF; rat NGF
# Description: as §2
# recombinant canine β NGF [10] = target: T2, recombinant canine β NGF; experiment: cell-based or functional assay
# biotinylated human β NGF [11] = target: T4, biotinylated human β NGF; experiment: capture ELISA; supernatant 625-fold
# Description: as §2
# biotinylated rat β NGF [12] = target: T5, biotinylated rat β NGF; experiment: capture ELISA; supernatant 625-fold
# Description: as §2
# biotinylated human β NGF [13] = target: T4, biotinylated human β NGF; experiment: capture ELISA; supernatant 5-fold
# Description: as §2
# biotinylated rat β NGF [14] = target: T5, biotinylated rat β NGF; experiment: capture ELISA; supernatant 5-fold
# Description: as §2
# biotinylated human β NGF [15] = target: T4, biotinylated human β NGF; experiment: capture ELISA; supernatant 125-fold
# Description: as §2
# biotinylated rat β NGF [16] = target: T5, biotinylated rat β NGF; experiment: capture ELISA; supernatant 125-fold
# Description: as §2
# recombinant canine β NGF [17] = target: T1, recombinant canine β NGF; experiment: cell-based or functional assay
# recombinant canine β NGF [18] = target: T1, recombinant canine β NGF; experiment: direct ELISA, canine NGF coated at 1 µg/ml, mAb at 0.4 µg/ml
# Description: (§3) To determine if purified mouse anti-NGF mAbs bind to canine β NGF, ELISA plates were coated with 50 μl/well of canine NGF (Abbott Laboratories) at 1 μg/ml in PBS and incubated over night at 4° C. The plates were washed three times with PBS+Tween buffer. The plates were blocked with 200 μl/well of 2% milk in PBS for 1 hour at room temperature. The plates were washed three times as above. Purified antibodies were diluted to 0.4, 2, or 10 μg/ml. 50 μl of each concentration of purified antibody was added to the plates. The plates were incubated for 1 hour at room temperature. The plates were washed. 50 μl of a 5000-fold diluted goat anti-mouse IgG Fc-HRP (Thermo, catalog #31439) was added. The plates were incubated for 1 hour at room temperature. 50 μl of TMB (Invitrogen, catalog #00-2023) was added and the reaction was stopped using 2N H₂SO₄ (VWR, catalog # BDH3500-1). The absorbance at 450 nm was read on a Spectromax 2E plate reader (Molecular Devices). The results are shown in Table 9, and the numerical value indicates binding of mouse anti-NGF antibodies to canine β NGF.
# recombinant canine β NGF [19] = target: T1, recombinant canine β NGF; experiment: cell-based or functional assay
# recombinant canine β NGF [20] = target: T1, recombinant canine β NGF; experiment: SPR (Biacore), mAb captured on goat anti-mouse IgG Fc, canine NGF injected; Average
# Description: (§4) A biomolecular protein interaction analysis was used to evaluate the binding kinetics of the interaction between the purified anti-NGF hybridoma antibodies and recombinant canine β NGF. The antibodies were captured using a goat anti-mouse IgG FC (10000 RU) surface which was directly immobilized to a CM5 chip using an amine coupling procedure according to the manufacturer's instructions (Biacore). A sample size of 5 μl of antibody at a concentration of 1 μg/ml was captured at 10 μl minute. Recombinant canine NGF was used as the antigen. Canine NGF was injected at 75 μl/min (concentration range: 5-0.039 nM) for mouse antibodies. The association rate was monitored for 3.3 minutes and the dissociation rate was monitored for 10 minutes. Aliquots of canine NGF were also simultaneously injected over a reference reaction CM surface to record any nonspecific binding background. The instrument sensitivity for on-rate is I×IO⁷, such that any on-rate that is faster than I×IO⁷ may not be accurately measured; the instrument sensitivity for off-rate is […], such that any off-rate that is slower than 1×10⁻⁶ may not be accurately measured. Therefore, an on-rate that is faster than 1×10⁷ is recorded as >1×10⁷ and an off-rate that is slower than 1×10⁻⁶ is recorded as <1×10⁻⁶.
# [21] = target: human β NGF (R&D Systems catalog #256-GF/CF) (human, UniProt P01138 122-241); experiment: cell-based or functional assay
# recombinant canine β NGF [22] = target: T1, recombinant canine β NGF; experiment: SPR (Biacore), mAb captured on goat anti-mouse IgG Fc, canine NGF injected; Expt 1
# Description: as §4
# recombinant canine β NGF [23] = target: T1, recombinant canine β NGF; experiment: SPR (Biacore), mAb captured on goat anti-mouse IgG Fc, canine NGF injected; Expt 2
# Description: as §4
# recombinant canine β NGF [24] = target: T1, recombinant canine β NGF; experiment: direct ELISA, canine NGF coated at 1 µg/ml, mAb at 10 µg/ml
# Description: as §3
# recombinant canine β NGF [25] = target: T1, recombinant canine β NGF; experiment: direct ELISA, canine NGF coated at 1 µg/ml, mAb at 2 µg/ml
# Description: as §3
# T4 sequence (P01138 122-241 limits assumed): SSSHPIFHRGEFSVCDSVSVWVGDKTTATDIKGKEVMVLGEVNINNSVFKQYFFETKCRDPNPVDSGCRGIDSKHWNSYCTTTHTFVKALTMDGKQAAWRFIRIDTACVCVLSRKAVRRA
# T3 sequence (P01138 122-241 limits assumed): as above
# T5 sequence (P25427 122-241 limits assumed): as the sequence (P01138 122-241 limits assumed) above, with S3T, I6V, R9M, M37T, D60A, D65E, M92T, G94D, V117A, A120G counted along it
# Chain of human β NGF (R&D Systems catalog #256-GF/CF) (P01138 122-241 limits assumed): as the sequence (P01138 122-241 limits assumed) above
binder,measurement,setting,value
B1,absorbance at 450 nm,human β NGF [1],0.07 OD450
same,absorbance at 450 nm,human β NGF [2],0.095 OD450
same,absorbance at 450 nm,human β NGF [3],0.065 OD450
same,"SureFire pERK, % of maximum signal; supernatant 1000-fold",human β NGF [4],0%
B2,Kd,recombinant canine β NGF [5],1.3 nM
same,koff,recombinant canine β NGF [5],0.0038 s⁻¹
same,"IC50, canine NGF-induced TF-1 cell proliferation (70 pM canine NGF)",recombinant canine β NGF [6],0.041 nM
same,TF-1 cell proliferation potency (70 pM canine NGF),[7],< 50 pM
B3,absorbance at 450 nm,biotinylated human β NGF [8],0.997
same,absorbance at 450 nm,biotinylated rat β NGF [9],0.431
same,PathHunter IC50 (441 pM canine NGF),recombinant canine β NGF [10],< 1 nM
same,SureFire cellular pERK IC50 (128 pM canine NGF),recombinant canine β NGF [10],< 1 nM
same,absorbance at 450 nm,biotinylated human β NGF [11],0.143
same,absorbance at 450 nm,biotinylated rat β NGF [12],0.108
same,absorbance at 450 nm,biotinylated human β NGF [13],1.1
same,absorbance at 450 nm,biotinylated rat β NGF [14],0.472
same,absorbance at 450 nm,biotinylated human β NGF [15],0.576
same,absorbance at 450 nm,biotinylated rat β NGF [16],0.261
B4,"IC50, canine NGF-induced TF-1 cell proliferation (70 pM canine NGF)",recombinant canine β NGF [17],0.343 nM
same,absorbance at 450 nm,recombinant canine β NGF [18],0.168 A450
same,PathHunter IC50 (441 pM canine NGF),recombinant canine β NGF [19],0.381 nM
same,SureFire pERK IC50 (128 pM canine β NGF),recombinant canine β NGF [19],0.0137 nM
same,Kd,recombinant canine β NGF [20],< 0.0231 nM
same,koff,recombinant canine β NGF [20],0.000231 s⁻¹
same,kon,recombinant canine β NGF [20],> 1e+07 M⁻¹ s⁻¹
same,"PathHunter % of max signal, supernatant 100-fold",[21],5%
same,Kd,recombinant canine β NGF [22],< 0.0237 nM
same,koff,recombinant canine β NGF [22],0.000237 s⁻¹
same,kon,recombinant canine β NGF [22],> 1e+07 M⁻¹ s⁻¹
same,Kd,recombinant canine β NGF [23],< 0.0225 nM
same,koff,recombinant canine β NGF [23],0.000225 s⁻¹
same,kon,recombinant canine β NGF [23],> 1e+07 M⁻¹ s⁻¹
same,absorbance at 450 nm,recombinant canine β NGF [24],0.491 A450
same,absorbance at 450 nm,recombinant canine β NGF [25],0.334 A450

# Reference: patent US20180362629A1 (ZOETIS BELGIUM S A, published 2018)
